# Publication PMC9352680, “A comprehensive thermodynamic model for RNA binding by the Saccharomyces cerevisiae Pumilio protein PUF4”
# Changes are numbered by the printed parent chain. In names and notes the source's numbering stands.
# B1: Ic_S2_P5E.1_K5.1_C5.1_H5.1_A5.1_[A7C]_F5.1_[T9G]_[A10G]_T5.1 (ssRNA)
# RNA: UUUGAUUAAUAUGAUAUCGUUCUUUCUUGUAUUCUGGUUCUUUCUCGAUAUCAUAUUAAUCUUU
# B2: Ic_S2_P5E.1_K5.1_C5.1_H5.1_A5.1_[T5C]_[T6A]_[A7T]_F5.1_[T8C]_[T9G]_[A10G]_T5.1 (ssRNA)
# RNA: B1 RNA with U32C, U33A, C34U, U35C
# B3: Ic_S2_P5E.1_K5.1_C5.1_H5.1_A5.1_[T5G]_[T6C]_[A7C]_F5.1_[T8C]_[T9A]_[A10T]_T5.1 (ssRNA)
# RNA: B1 RNA with U32G, U33C, U35C, G36A, G37U
# B4: Ic_S2_P5E.1_K5.1_C5.1_H5.1_A5.1_[T5C]_[A7C]_F5.1_[T9C]_[A10T]_T5.1 (ssRNA)
# RNA: B1 RNA with U32C, G36C, G37U
# B5: Ic_S2_P5E.1_K5.1_C5.1_H5.1_A5.1_[T5A]_[T6A]_[A7T]_F5.1_[T8A]_[T9C]_[A10G]_T5.1 (ssRNA)
# RNA: B1 RNA with U32A, U33A, C34U, U35A, G36C
# B6: Ic_S2_P5E.1_K5.1_C5.1_H5.1_A5.1_[T6C]_F5.1_[T8G]_[T9C]_[A10C]_T5.1 (ssRNA)
# RNA: B1 RNA with U33C, C34A, U35G, G36C, G37C
# B7: Ic_S2_P5E.1_K5.1_C5.1_H5.1_A5.1_[T5G]_F5.1_[T8A]_[A10T]_T5.1 (ssRNA)
# RNA: B1 RNA with U32G, C34A, U35A, G36U, G37U
# B8: Ic_S2_P5E.1_K5.1_C5.1_H5.1_A5.1_[T5G]_[A7T]_F5.1_[T8C]_[A10T]_T5.1 (ssRNA)
# RNA: B1 RNA with U32G, C34U, U35C, G36U, G37U
# B9: Ic_S2_P5E.1_K5.1_C5.1_H5.1_A5.1_[T5C]_[T6G]_[A7C]_F5.1_[T8C]_[T9C]_T5.1 (ssRNA)
# RNA: B1 RNA with U32C, U33G, U35C, G36C, G37A
# B10: Ic_S2_P5E.1_K5.1_C5.1_H5.1_A5.1_[T5C]_F5.1_[T8A]_[T9C]_[A10C]_T5.1 (ssRNA)
# RNA: B1 RNA with U32C, C34A, U35A, G36C, G37C
# B11: Ic_S2_P5E.1_K5.1_C5.1_H5.1_A5.1_[T5G]_[A7C]_F5.1_[T9C]_[A10G]_T5.1 (ssRNA)
# RNA: B1 RNA with U32G, G36C
# B12: Ic_S2_P5E.1_K5.1_C5.1_H5.1_A5.1_[T6C]_[A7T]_F5.1_[T8A]_[T9C]_[A10G]_T5.1 (ssRNA)
# RNA: B1 RNA with U33C, C34U, U35A, G36C
# B13: Ic_S2_P5E.1_K5.1_C5.1_H5.1_A5.1_[T6G]_[A7T]_F5.1_[T8C]_[T9A]_[A10T]_T5.1 (ssRNA)
# RNA: B1 RNA with U33G, C34U, U35C, G36A, G37U
# B14: Ic_S2_P5E.1_K5.1_C5.1_H5.1_A5.1_[T6A]_[A7T]_F5.1_[T8C]_[T9C]_[A10T]_T5.1 (ssRNA)
# RNA: B1 RNA with U33A, C34U, U35C, G36C, G37U
# B15: Ic_S2_P5E.1_K5.1_C5.1_H5.1_A5.1_[T6G]_[A7T]_F5.1_[T8A]_[T9A]_T5.1 (ssRNA)
# RNA: B1 RNA with U33G, C34U, U35A, G36A, G37A
# B16: Ic_S2_P5E.1_K5.1_C5.1_H5.1_A5.1_[T5A]_[T6A]_F5.1_[T8C]_[T9A]_[A10C]_T5.1 (ssRNA)
# RNA: B1 RNA with U32A, U33A, C34A, U35C, G36A, G37C
# B17: Ic_S2_P5E.1_K5.1_C5.1_H5.1_A5.1_[T6G]_[A7G]_F5.1_[T8C]_[A10C]_T5.1 (ssRNA)
# RNA: B1 RNA with U33G, C34G, U35C, G36U, G37C
# B18: Ic_S2_P5E.1_K5.1_C5.1_H5.1_A5.1_[T5A]_[T6C]_[A7T]_F5.1_[T8A]_[T9A]_T5.1 (ssRNA)
# RNA: B1 RNA with U32A, U33C, C34U, U35A, G36A, G37A
# B19: Ic_S2_P5E.1_K5.1_C5.1_H5.1_A5.1_[T6A]_[A7T]_F5.1_[T8C]_[T9G]_[A10G]_T5.1 (ssRNA)
# RNA: B1 RNA with U33A, C34U, U35C
# B20: Ic_S2_P5E.1_K5.1_C5.1_H5.1_A5.1_[T5A]_F5.1_[T8C]_[T9G]_[A10C]_T5.1 (ssRNA)
# RNA: B1 RNA with U32A, C34A, U35C, G37C
# B21: Ic_S2_P5E.1_K5.1_C5.1_H5.1_A5.1_[T5A]_[T6A]_[A7T]_F5.1_[T9A]_T5.1 (ssRNA)
# RNA: B1 RNA with U32A, U33A, C34U, G36A, G37A
# B22: Ic_S4_P3E.1_K3.1_C3.1_H3.1_A3.1_[T5G]_[A6C]_F3.1_[T7G]_[A8G]_T3.1 (ssRNA)
# RNA: UUUGACAACUGAUCGUUCUUUCUUGUAGCGGUUCUUUCUCGAUCAGUUGUCUUU
# B23: Ic_S4_P3E.1_K3.1_C3.1_H3.1_A3.1_[T5G]_[A6T]_F3.1_[T7A]_[A8T]_T3.1 (ssRNA)
# RNA: B22 RNA with C29U, G30A, G31U
# B24: Ic_S4_P3E.1_K3.1_C3.1_H3.1_A3.1_[T5C]_[A6G]_F3.1_[T7C]_T3.1 (ssRNA)
# RNA: B22 RNA with G28C, C29G, G30C, G31A
# Biological target: T1, PUF4 RNA-binding domain (Saccharomyces cerevisiae, UniProt P25339 537-888)
# T1 sequence: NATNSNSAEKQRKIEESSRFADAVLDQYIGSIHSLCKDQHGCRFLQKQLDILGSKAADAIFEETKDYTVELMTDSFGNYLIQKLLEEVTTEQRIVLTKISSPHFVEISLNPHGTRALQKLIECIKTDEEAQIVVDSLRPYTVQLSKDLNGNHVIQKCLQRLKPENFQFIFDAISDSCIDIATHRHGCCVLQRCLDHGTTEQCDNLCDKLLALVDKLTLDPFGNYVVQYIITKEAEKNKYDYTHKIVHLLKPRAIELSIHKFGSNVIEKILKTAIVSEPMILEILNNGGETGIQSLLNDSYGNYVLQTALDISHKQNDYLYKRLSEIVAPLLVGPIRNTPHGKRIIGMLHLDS
# Experiment: Mg; RNA-MaP; 20 mM Na-HEPES pH 7.4, 30 mM KOAc, 0.75 mM MgCl2, 0.1% Tween-20, 5% glycerol, 0.1 mg/mL BSA, 2 mM DTT; 25 C; 0.0125-409.6 nM protein
# Settings: tags: N-His6-TEV cleaved; C-SNAP kept, Cy3B-labelled; label: tethered on chip by stalled RNA polymerase
row,Binder,Kd
1,UCUCUUUGCAUAUUGUCUCUU (ssRNA) [Ib_S1_P4E.1_K4.1_C4.1_H4.1_[T3C]_A4.1_F4.1_[A9G]_T4.1],1840 nM
2,UCUCUUUAUAUAUUUUCUCUU (ssRNA) [Ib_S1_P4E.1_K4.1_C4.1_H4.1_[G2A]_A4.1_F4.1_[A9T]_T4.1],413 nM
3,UCUCUUUGUGUAUUGUCUCUU (ssRNA) [Ib_S1_P4E.1_K4.1_C4.1_H4.1_[A4G]_A4.1_F4.1_[A9G]_T4.1],18.3 nM
4,UCUCUUUAUAUAUUAUCUCUU (ssRNA) [Ia_S1_P4E.1_K4.1_C4.1_H4.1_[G2A]_A4.1_F4.1_T4.1],14.1 nM
5,B1,23.5 nM
6,B2,315 nM
7,B3,819 nM
8,B4,13.5 nM
9,B5,52 nM
10,B6,389 nM
11,B7,342 nM
12,B8,126 nM
13,B9,558 nM
14,B10,228 nM
15,B11,706 nM
16,B12,26.1 nM
17,B13,64 nM
18,B14,10.3 nM
19,B15,53.7 nM
20,B16,128 nM
21,B17,543 nM
22,B18,129 nM
23,B19,49.1 nM
24,B20,1050 nM
25,B21,2.21 nM
26,UCUCUUUGCAUAUUUUCUCUU (ssRNA) [Ib_S1_P4E.1_K4.1_C4.1_H4.1_[T3C]_A4.1_F4.1_[A9T]_T4.1],> 2300 nM
27,B22,1270 nM
28,B23,52.9 nM
29,B24,444 nM
